Measured values published in patent US7393670B2, “Tyrosyl-tRNA synthetase variants” (Japan Science and Technology Agency, priority 2001, dated 2008).

Assays:
Type in all cases: biochemical
[1] = system: wheat germ cell-free translation system; experiment: Amber suppression in wheat germ cell-free protein synthesis system (c-H-Ras, 32nd codon amber)
From the text: Production of the protein containing iodotyrosine was attempted by the reaction by a batch method in a wheat germ cell-free protein synthesis system using the resultant VC and an amber suppressor tRNA derived from tyrosine tRNA of E. coli. A short chain type of c-H-Ras added His-tag at the C-terminus via a spacer sequence (Milburn et al., Science 247:939-45, 1990) was used as the target protein. In translation where the template was mRNA made from a construction where the 32nd codon of this protein was replaced by the amber codon, the production of the protein in full length was dependent on coexistence of both TyrRS and the suppressor tRNA (FIG. 2). This proves that the suppressor tRNA used is scarcely aminoacylated by the endogenous aminoacyl-tRNA synthetase in the wheat germs. A synthetic quantity by the amber suppression was 30 to 40% of that of a control with no amber codon. In order to increase the synthetic quantity of the protein, the reaction by the suppression was carried out for 3 days using a dialysis method. […]
The translation reaction was carried out by further adding iodotyrosine at a final concentration of 0.6 mM in addition to the condition of the kit. […] Using an image analyzer FLA-2000 (Fujifilm, Tokyo, Japan), counts of RI of bands on the gel were quantified, or protein bands stained using Cypro-tangerine protein gel stain (Molecular probes) on the gel were quantified.

[2] = system: tyrosine or 3-iodotyrosine for the full-length tRNA; experiment: Aminoacylation of full-length tRNA by acidic polyacrylamide gel electrophoresis (Wolfson); conditions: acidic PAGE; 200 μM amino acid, enzyme 50 nM, 37° C. for 3 min
Procedure: In the third method, levels of aminoacylation activity in the presence of tyrosine or 3-iodotyrosine for the full-length tRNA were assayed by the same method as. acidic polyacrylamide gel electrophoresis described by Wolfson et al. (Wolfson, A. D. et al., RNA, 4:1019-1023, 1998). The result is shown in FIG. 1 as a photo, substitute for a drawing.
In the third method, the aminoacylation activity for tyrosine or 3-iodotyrosine for tRNA in full length was assayed by the same method as acidic polyacrylamide electrophoresis by the method of Wolfson et al. (Wolfson, A. D. et al., RNA, 4:1019-1023, 1998). Tyrosine or iodotyrosine at 200 μM and the enzyme at 50 nM were incubated at 37° C. for 3 min, and subsequently the electrophoresis was carried out. The result of the aminoacylation activity of the enzymes with double mutations are shown on the photo, substitute for a drawing, in FIG. 1. In FIG. 1, left three lanes are from the wild-type enzyme, middle three lanes are from the enzyme modified at position 37 with valine (37V) and right three lanes are from the enzyme modified at positions 37 and 195 with valine and cysteine (VC), respectively. Three lanes in each group show the case without the addition of the amino acid (w/o aa), the case with the addition of 3-iodotyrosine (200 μM) (1-Tyr), and the case with the addition of tyrosine (200 μM) (Tyr), respectively from the left.

[3] = Aminoacylation activity by Lloyd's method (release of pyrophosphates)
Procedure: In the second method, Lloyd's method (Nucleic Acids Research, 23:2886-2892, 1995) was carried out without alteration.
In the second method, the activity was assayed by Lloyd's method (Nucleic Acids Research, 23:2886-2892, 1995). Each enzyme obtained was incubated with 0.4 ml of the buffer B containing 1 mM ATP (Seikagaku Corporation), 100 μM purified crude tyrosyl-tRNA, 200 μM tyrosine or 3-iodotyrosine at 37° C. for 6 min. The aminoacylation activity was represented as concentrations of released phosphate per min.

[4] = Aminoacylation reaction, simplified Lloyd's method, inorganic phosphate detected with Biomol green; parameters: key: ***: the reaction could be detected strongly at 25 nM; **: strongly at 250 nM; *: weakly at 250 nM; the activity is high in the order of *** > ** > * > —; conditions: Table 3; tyrosine 200 μM; 37° C. for 4 min
Procedure: In the first method, Lloyd's method (Nucleic Acids Research, 23:2886-2892, 1995) where inorganic phosphate produced by pyrophosphatase-drived hydrolysis of pyrophosphate which was one of the reaction products of the aminoacylation reactions was quantified was simplified, and the inorganic phosphate was detected using Biomol green (Funakoshi) to carry out the measurement of the aminoacylation reaction.
Amino acid concentrations were 200 μM and 1 mM for tyrosine and 3-iodotyrosine, respectively.
The method where the aminoacylation reaction is measured by quantifying inorganic phosphate produced by pyrophosphatase-drived hydrolysis of pyrophosphate which is one of reaction products of the aminoacylation has been described by Lloyd et al. (Nucleic Acids Research, 23:2886-2892, 1995). In one method of the invention, this method was simplified and the aminoacylation reaction was measured by the detection of inorganic phosphate using Biomol green (Funakoshi). […] To stop the reaction, 0.1 ml of Bio mol green was added. Absorbance of its supernatant was measured at 630 nm.

B1: VC: E. coli TyrRS double variant: position 37 Valine, position 195 Cysteine (protein, UniProt P0AGJ9 2-424, looked up, variant Y37V Q195C)
Tyrosine--tRNA ligase: ASSNLIKQLQERGLVAQVTDEEALAERLAQGPIALVCGFDPTADSLHLGHLVPLLCLKRFQQAGHKPVALVGGATGLIGDPSFKAAERKLNTEETVQEWVDKIRKQVAPFLDFDCGENSAIAANNYDWFGNMNVLTFLRDIGKHFSVNQMINKEAVKQRLNREDQGISFTEFSYNLLQGYDFACLNKQYGVVLCIGGSDQWGNITSGIDLTRRLHQNQVFGLTVPLITKADGTKFGKTEGGAVWLDPKKTSPYKFYQFWINTADADVYRFLKFFTFMSIEEINALEEEDKNSGKAPRAQYVLAEQVTRLVHGEEGLQAAKRITECLFSGSLSALSEADFEQLAQDGVPMVEMEKGADLMQALVDSELQPSRGQARKTIASNAITINGEKQSDPEYFFKEEDRLFGRFTLLRRGKKNYCLICWK
For B1, the “amber suppression (full-length translation product, SDS-PAGE)” value ([1]; FIG. 2, 14C-leucine labeled products) was “amber suppression was observed only when both TyrRS-VC variant and suppressor tRNA were present”, the “quantity of the production of protein” value ([1]; dialysis method, 3 days) was ≥ 0.1 mg per ml of reaction solution and the “specificity for the tyrosine analogue (attachment of amino acid to tRNA)” value [2] was “high specificity for the tyrosine analogue”. For the same molecule, the “relative tyrosine analogue to tyrosine ratio” value ([3]; 3-iodotyrosine versus tyrosine, from Table 4) was “more than 10”, the “Initial velocity of release of pyrophosphates, 3-iodotyrosine” value ([3]; at 37° C., 200 μM 3-iodotyrosine) was 9.5 nM PPi/min/nM enzyme and the “Initial velocity of release of pyrophosphates, Tyrosine” value ([3]; at 37° C., 200 μM tyrosine) was 0.9 nM PPi/min/nM enzyme. The “Aminoacylation activity, Tyrosine” value [4] was “*”.
